Results reported in patent publication US20080292641A1 (MORPHOTEK, published 2008).

Molecular target: TT (tetanus toxin / tetanus toxoid) (UniProt P04958 2-1315)
Test: ELISA of hybridoma clones

Sequence of TT (tetanus toxin / tetanus toxoid) (P04958 2-457 limits assumed, chain 1 of 2): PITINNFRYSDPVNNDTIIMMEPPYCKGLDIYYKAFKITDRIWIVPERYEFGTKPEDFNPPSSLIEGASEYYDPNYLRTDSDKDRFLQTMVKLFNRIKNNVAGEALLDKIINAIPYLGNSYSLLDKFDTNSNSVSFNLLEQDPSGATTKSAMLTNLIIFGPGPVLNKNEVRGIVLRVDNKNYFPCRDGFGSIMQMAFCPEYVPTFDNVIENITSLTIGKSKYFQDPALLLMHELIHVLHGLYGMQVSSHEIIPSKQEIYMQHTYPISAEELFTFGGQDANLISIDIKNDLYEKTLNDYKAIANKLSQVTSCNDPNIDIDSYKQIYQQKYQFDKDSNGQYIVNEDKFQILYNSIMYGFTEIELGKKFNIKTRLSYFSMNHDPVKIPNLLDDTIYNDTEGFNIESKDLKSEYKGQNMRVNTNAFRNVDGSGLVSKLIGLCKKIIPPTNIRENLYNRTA
Sequence of TT (tetanus toxin / tetanus toxoid) (P04958 458-1315 limits assumed, chain 2 of 2): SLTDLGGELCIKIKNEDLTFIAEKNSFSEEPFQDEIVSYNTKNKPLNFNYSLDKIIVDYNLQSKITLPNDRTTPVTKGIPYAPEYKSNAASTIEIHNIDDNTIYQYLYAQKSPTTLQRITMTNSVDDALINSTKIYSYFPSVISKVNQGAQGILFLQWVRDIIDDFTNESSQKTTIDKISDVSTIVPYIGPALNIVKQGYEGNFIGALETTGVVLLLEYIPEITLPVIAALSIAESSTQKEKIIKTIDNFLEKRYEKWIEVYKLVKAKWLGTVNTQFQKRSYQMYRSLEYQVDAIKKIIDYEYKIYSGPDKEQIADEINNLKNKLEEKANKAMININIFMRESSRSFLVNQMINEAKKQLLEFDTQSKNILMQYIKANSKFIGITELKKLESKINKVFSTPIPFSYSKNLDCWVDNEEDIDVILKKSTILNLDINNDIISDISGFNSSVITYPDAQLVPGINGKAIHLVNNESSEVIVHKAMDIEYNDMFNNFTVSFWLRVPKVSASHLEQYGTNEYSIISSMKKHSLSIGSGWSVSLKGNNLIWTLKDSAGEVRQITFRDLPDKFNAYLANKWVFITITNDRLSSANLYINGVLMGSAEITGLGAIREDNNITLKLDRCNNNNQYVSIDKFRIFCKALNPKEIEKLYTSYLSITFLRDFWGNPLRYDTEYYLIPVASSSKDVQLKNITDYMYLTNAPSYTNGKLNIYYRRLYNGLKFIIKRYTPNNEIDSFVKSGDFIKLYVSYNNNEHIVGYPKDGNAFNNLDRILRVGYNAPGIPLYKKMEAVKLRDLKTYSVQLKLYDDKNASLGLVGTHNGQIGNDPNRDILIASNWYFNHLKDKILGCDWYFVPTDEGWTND

B1: anti-GM-CSF human IgG1 monoclonal antibody E10 (antibody, V domains shown)
VH: QVQLEESGGGVVQPGRSLRLSCAASGFTFTNYGMHWVRQAPGKGLEWLALISYDGNRQYYADSVKGRFTVSRDNPNNTLHLEMKSLRAEDSAIYYCARGAGVLLWFGDLSWFDPWGQGTLVTVSS
VL: DIQMTQSPSNLSASVGDRVTITCRASQNINTWLAWYQHKPGKPPKLRIYQASTLESGVPSRFSGSGSGTIFTLTISSLQPDDFGTYYCQQNNSYPYTFGQGTKLEINR
notes: Fully human IgG1 kappa made by a hybridoma from B cells of a PAP patient; also called 4E10; E10.20
  binding result: no binding

B2: anti-GM-CSF human IgG1 monoclonal antibody G9 (antibody, V domains shown)
VH: EVQLVESGGGLVQPGGSLRLSCAASGFTFSRHWMHWLRQVPGKGPVWVSRINGAGTSITYADSVRGRFTISRDNANNTLFLQMNSLRADDTALYFCARANSVWFRGLFDYWGQGTPVTVSS
VL: EIVLTQSPVTLSVSPGERVTLSCRASQSVSTNLAWYQQKLGQGPRLLIYGASTRATDIPARFSGSGSETEFTLTISSLQSEDFAVYYCQQYDKWPDTFGQGTKLEIKR
notes: Fully human IgG1 kappa made by a hybridoma from B cells of a PAP patient; also called 10G9; 10G9.1
  binding result: no binding
